B1: Cell cycle serine/threonine-protein kinase hsk1 (Schizosaccharomyces pombe (strain ATCC 38366 / 972)), P50582 (parent)
chain: MAEAHITLSPKVTHEQQTDIDSECEITEVDDENVNENKSQEMIQDIPARDREEIENITRTFVELQENYRLIEKIGEGTFSSVYKAEDLHYGRYINDWDIQSEVLKESSFGKEKIPVNEDSRKPKYVAIKKIYATSSPARIYNELEILYLLRGSSVIAPLITALRNEDQVLVVLPYYEHTDFRQYYSTFSYRDMSIYFRCLFQAMQQTQTLGIIHRDIKPSNFLFDVRTKHGVLVDFGLAERYDGRQQSHSCRCTNSNAAELAHDFSIAQETSLGYIKNDTRPSKRANRAGTRGFRAPEVLFKCSSQSPKVDIWSAGVILLSFLTKRFPMFNSKDDVDALMEIACIFGKSEMRQCAALHGCTFETNVSTLTEKRVNFRKLILWASCGSASIYKEKLRHKPSQEERLCLDFLEKCLELDCNKRISAEEALDHDFLYLDNLAYEKKDDDTAFDNSFGETSFEKDEDLTAKHLSHILDFKEQEETDEPTSLSKRKRSIDEILPNDALQDGA
partner: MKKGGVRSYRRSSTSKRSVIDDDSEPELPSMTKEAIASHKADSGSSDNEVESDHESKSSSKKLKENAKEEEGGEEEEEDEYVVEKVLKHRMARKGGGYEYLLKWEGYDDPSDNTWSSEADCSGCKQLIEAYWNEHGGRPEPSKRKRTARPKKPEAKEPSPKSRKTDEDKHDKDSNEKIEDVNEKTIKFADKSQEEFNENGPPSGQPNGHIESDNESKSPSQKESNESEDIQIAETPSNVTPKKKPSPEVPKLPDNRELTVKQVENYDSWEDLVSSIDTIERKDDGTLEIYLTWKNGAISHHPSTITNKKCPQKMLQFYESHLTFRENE

Variants of B1 are the subject of this experiment. The following applies: with swi6_schpo swi6, P40381.
In the case of S314I, the “effect of a mutation on the interaction” value is given as “decreasing interaction”.

These data come from IntAct's records for PubMed 14625560.
